Data published in the nanobody polyreactivity screen of Harvey et al. (2022).

Test: yeast display, Sf9 membrane polyspecificity reagent, FACS + sequencing; frameworks hold sequencing errors
In short: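 Galactose-induced (36–48 hours) yeast carrying a synthetic nanobody display library were exposed to 10% biotinylated, detergent-solubilized Sf9 membrane reagent at 4 °C for 1 hour. FACS followed streptavidin microbead enrichment, using low and high (top ~1%) gates for expression (anti-HA) and reagent binding (streptavidin). Colony PCR, MiSeq 2 × 250 sequencing and CDR-length filtering followed. Labels for polyreactivity reflect the gate of origin.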

Row | Sequence | polyreactivity (PSR sort gate)
1 | QVQLVESGGGLVQAGGSLRLSCAASGLIFANYAMGWYRQAPGKERELVAAITWSGGTTYYADSVKGRFTISRDNAKNTVYLQMNSLKPEDTAVYYCAAEVPYYQAAEYDYWGQGTQVTVSS | low polyreactivity
2 | QVQLVESGGGLVQAGGSLRLSCAASGLIFARNAMVWYRQAPGKERELVAAIAKRGGSTFYADSVKVRFTISRDNAKNTVYLQMNSLKPEDTAVYYCNARSSETWHGDYWGQGTQVTVSS | high polyreactivity
3 | QVQLVESGGGLVQAGGSLRLSCAASGLIFARYAMGWYRQAPGKERELVAAISSRGGGTYYADSVKGRFTISRDNAKNTVYLQMNSLKPEDTAVYYCNRLRGTPVGLSIGGYYYWGQGTQVTVSS | high polyreactivity
4 | QVQLVESGGGLVQAGGSLRLSCAASGLIFARYAMGWYRQAPGKERELVAAISSSGVSTDYADSVKGRFTISRDNAKNTVYLQMNSLKPEDTAVYYCAKRTGSRVRGGKYGYWGQGTQVTVSS | high polyreactivity
5 | QVQLVESGGGLVQAGGSLRLSCAASGLIFATTVLGWYRQAPGKERELVASITTSGSRTYYADSVKGRFTISRDNAKNTVYLQMNSLKPEDTAVYYCAAYPTYLTPSSPGYDYWGQGTQVTVSS | high polyreactivity
6 | QVQLVESGGGLVQAGGSLRLSCAASGLIFAVYAMGWYRQAPGKERELVAGISASAASTYYADSVKGRFTISRDNAKNTVYLQMNSLKPEDTAVYYCAADFYWFWTYGTLWYGYEYWGQGTQVTVSS | high polyreactivity
7 | QVQLVESGGGLVQAGGSLRLSCAASGLIFAWYAMGWYRQAPGKERELVATISWNGDRTYYADSVKGRFTISRDNAKNTVYLQMNSLKPEDTAVYYCAARFGSGFNYWGQGTQVTVSS | high polyreactivity
8 | QVQLVESGGGLVQAGGSLRLSCAASGLIFDDYAMGWYRQAPGKERELVAAISWSDGTTYYADSVKGRFTISRDNAKNTVYLQMNSLKTEDTAVYYCAAEEVSGWEYDYWGQGTQVTVSS | high polyreactivity
9 | QVQLVESGGGLVQAGGSLRLSCAASGLIFDPYAMGWYRQAPGKERELVADISSGGSTNYADSVKGRFTISRDNAKNTVYLQMTSLKPEDTAVYYCNKTIILDGYYFSLTLYDSWGQGTQVTVSS | low polyreactivity
10 | QVQLVESGGGLVQAGGSLRLSCAASGLIFDWYAMGWYRQAPGKERELVADISYSGGSTNYADSVKGRFTISRDNAKNTVYLQMNSLKPEDTAVYYCAADDYWTPFGYWGQGTQVTVSS | low polyreactivity
11 | QVQLVESGGGLVQAGGSLRLSCAASGLIFDYYAMGWYRQAPGKERELVASINNRGGSTFYADSVKGRFTISRDNAKNTVYLQMNSLKPEDTAVYYCNAVRRTGGHGDYWGQGTQVTVSS | high polyreactivity
12 | QVQLVESGGGLVQAGGSLRLSCAASGLIFDYYPMGWYRTAPGKERELVAAISYSGGRTYYADSVKGRFTISRDKAKNTVYLQMNSLKPEDTAVYYCNKVVLQPVIVDHDYWGQGTQVTVSS | low polyreactivity
13 | QVQLVESGGGLVQAGGSLRLSCAASGLIFESNAMGWYRQAPGKGRELVAAITTNGGSTYYADSVKGRFTISRDKGKNTVYLQMNSLKPEDTAVYYCAARFSYRSYDYWGQGTQVTVSS | low polyreactivity
14 | QVQLVESGGGLVQAGGSLRLSCAASGLIFFPKAMGGYRPAPGKERELVAYITWSGGGTNYSDSVKGRFTISRDNAKNTVYLQMNSLKPEDTAVYYCNADGTRDYFSLITGSYSVTYDYWGQGTQVTVSS | high polyreactivity
15 | QVQLVESGGGLVQAGGSLRLSCAASGLIFFYYTMGWYRQAPGKERELVAAISQSGGRTYYADSVKGRFTISRDNAKNTVYLQMNSLKPEDTAVYYCAAAVRYRGDEFDYWGQGTQVTVSS | low polyreactivity
16 | QVQLVESGGGLVQAGGSLRLSCAASGLIFGPYTMGWYRQAPGKERELVAAISRSGGITYYADSEKGRFTISRDNAKNTVYLQMNSLKPEDTAGYYCAARYSTQWSRYDYWGQGTQVTVSS | high polyreactivity

Row | Sequence | polyreactivity (PSR sort gate)
17 | QVQLVESGGGLVQAGGSLRLSCAASGLIFGRNAMGWYRQAPGKERELVAAISWSGGSTYYADSVKGRFTISRDNAKNTVYLEMKSLKPEDTAVYYCYRYRYYGSEDDYWGQCTQVTVSS | high polyreactivity
18 | QVQLVESGGGLVQAGGSLRLSCAASGLIFGRNAMGWYRQAPGKERELVAAISWSGGSTYYADSVKGRFTISRDNAKNTVYLQMNSLKPEDTAVYYCNRYRYYGSEDDYWGQGTQVTVSS | high polyreactivity
19 | QVQLVESGGGLVQAGGSLRLSCAASGLIFGRNAMGWYRQAPGKERELVAAITSGGSTYYADSVKGRFTISRDNAKNTVYLQMNSLKPEDTAVYYCAADVVDLYLLDYWGQGTQVTVSS | low polyreactivity
20 | QVQLVESGGGLVQAGGSLRLSCAASGLIFGSYVMGWYRQAPGKERELVAAITVRTGTTYYADSVKGRFTISRDNAKNTVYLQMNSLKPEDTAVYYCARRYRPKYGYWGQGTQVTVSS | high polyreactivity
21 | QVQLVESGGGLVQAGGSLRLSCAASGLIFGTYAMGWYRQAPGKERELVAVISSSGGSTYYADSVKGRFTISRDNAKNTVYLQLNSLKPEDTAVYYCNARAFRQGHFEYDYWGQGTQVTVSS | low polyreactivity
22 | QVQLVESGGGLVQAGGSLRLSCAASGLIFGYNAMGWYRQAPGKEREYVAGISVIDGRTYYADSVKGRFTISRDNAKNTVYLQMNSLKPEDTAVYYCATEGFVYSWLWEFEYWGQGNQVTVSS | low polyreactivity
23 | QVQLVESGGGLVQAGGSLRLSCAASGLIFHRNAMGWYRQAPGTERELVAAITKTGGGTYYADSVKGRFTISRDNAKNTVYLQMNSLKPEDTAVYYCAADTQRTFYYWGQGTQVTVSS | low polyreactivity
24 | QVQLVESGGGLVQAGGSLRLSCAASGLIFIDYAIGWYRQAPGKERELVAAITRGGARTYYADSVKGRFTISRDNAKNTVYLEMNSLKPEDTAVYYCAADRPGSRYIDVDYWGQGTQVTVSS | high polyreactivity
25 | QVQLVESGGGLVQAGGSLRLSCAASGLIFIFNTMGWYRQAPGKERELVAAISWSGTSTYYADSVKGRFTISRDNANMTVYLLMNSLKPVDTAVYFCNDDLYWFRGFDYWGQGTQVTVSS | high polyreactivity
26 | QVQLVESGGGLVQAGGSLRLSCAASGLIFIVYAMGWYRQAPGKERELVAAISWSGGSTYYADSVKGRFTISRDNAKNTVYLQMNSLKPEDTAVYYCAAESYGVWDYEYWGQGTQVTVSS | high polyreactivity
27 | QVQLVESGGGLVQAGGSLRLSCAASGLIFKYNVMGWYRQAPGKERELVAAITKRGGSTYYADSVKGRFTISRDNAKNTVYLQMNSLKPEDTAVYYCAARPVNTVRPFDYWGQGTQVTVSS | high polyreactivity
28 | QVQLVESGGGLVQAGGSLRLSCAASGLIFKYNVMGWYRQAPGKERELVAAITKRGGSTYYADSVKGRFTISRDNEKNTVYLQMNSLKPEDTAVYYCAARPVNTVRPFDYWGQGTQVTVSS | high polyreactivity
29 | QVQLVESGGGLVQAGGSLRLSCAASGLIFKYYAMGWYRHAPGKERELVAAITWRGGDRTYYADSVKGRFTISRDNAKNTVYLQMNSLKPEDTAVYYCAAVISSPWRFDYWGQGTQVTVSS | high polyreactivity
30 | QVQLVESGGGLVQAGGSLRLSCAASGLIFKYYAMGWYRQAPGKERELVASISRGGVTTYYADSVKGRFTISRDNAKNTVYLQMNSLKPEDTAVYYCAARFRYAPFYHWGQGTQVTVSS | high polyreactivity
31 | QVQLVESGGGLVQAGGSLRLSCAASGLIFLWYAMGWYRQAPGKERELVAAIRSSGDSTYYADSVKGRFTISRDNAKNTVYLQMNSLKPEDTAVYYCNRRKTNSRYDYWGQGTQVTVSS | low polyreactivity
32 | QVQLVESGGGLVQAGGSLRLSCAASGLIFLYAMGWYRQAPGKERELVAAISNGGSTYYADSVKGRFTISRDNAKNTVYLQMNSLKPEDTAVYYCAAKGVRRRYRQDMYYWGQGTQVTVSS | high polyreactivity
